Experimental findings from the supplement of paper PMC10724198 are described below.

The test system of this data set is Saccharomyces cerevisiae. Put plainly: protein stability index of tFT-peptide fusion (C-terminal peptide) (PSI (0-1 scale)); higher = more stable (slower turnover). Conditions: temperature: 30 C. As for the experimental part: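 MPS profiling in S. cerevisiae of the yeast C-terminome library: the last 12 aa of each annotated ORF are fused to the C-terminus of a sfGFP-mCherry timer, after a GGGS linker. Cells are FACS-sorted into 8 mCherry/sfGFP bins and deep-sequenced. PSI runs from 0 (unstable) to 1 (stable); wild type and das1Δ backgrounds, two technical replicates each.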

[1] abbreviates: genetic background: das1 deletion.

± gives the standard deviation of the averaged measurements.

Consider NEEMAEISNPFR [FEN2 C-terminal 12 aa], for which the protein stability index by setting is: under setting [1], 0.699 ± 0.019; (genetic background: wild type) 0.711 ± 0.026.

As to NEEMIRKLKAAK [JID1 C-terminal 12 aa], the protein stability index is 0.674 ± 0.015 under setting [1] and 0.662 ± 0.021 (genetic background: wild type).

On to NEPTNSDIVELD [UBA2 C-terminal 12 aa], for which the protein stability index turned out to be 0.693 ± 0.023 under setting [1] and 0.676 ± 0.019 (genetic background: wild type).

Take NFKNSSAKSKRS [PKH2 C-terminal 12 aa]: the protein stability index is 0.682 ± 0.014 under setting [1] and 0.695 ± 0.0083 (genetic background: wild type).

Take NFLNLLSPLPSV [TOM7 C-terminal 12 aa]: the protein stability index runs as follows: under setting [1], 0.72262 ± 0.00027; (genetic background: wild type) 0.6951 ± 0.0031.

As to “NGTAKSAQSTTV [YAR019W-A C-terminal 12 aa]”, the protein stability index is, setting by setting: under setting [1], 0.67513 ± 0.00026; (genetic background: wild type) 0.729 ± 0.016.

In the case of NGWHELALPQSR [SWM1 C-terminal 12 aa], the protein stability index was found to be 0.74 ± 0.0028 under setting [1] and 0.705 ± 0.021 (genetic background: wild type).

Consider NIATIASERSRP [YPL102C C-terminal 12 aa], for which the protein stability index runs as follows: under setting [1], 0.723 ± 0.046; (genetic background: wild type) 0.683 ± 0.007.

Turning to NIIGLLSNDEEH [CBP2 C-terminal 12 aa], the protein stability index is, setting by setting: under setting [1], 0.6944 ± 0.0063; (genetic background: wild type) 0.6869 ± 0.0018.

NKDTMQLFRAYL [CIN2 C-terminal 12 aa] yielded a protein stability index under setting [1] of 0.7695 ± 0.0014 and a protein stability index (genetic background: wild type) of 0.834 ± 0.04.

For the sequence NKPKGPLRKRRT [TWF1 C-terminal 12 aa], the protein stability index runs as follows: under setting [1], 0.7 ± 0.017; (genetic background: wild type) 0.672 ± 0.011.

On to NKREFIDSLRPH [AIM20 C-terminal 12 aa], for which the protein stability index stood at 0.71 ± 0.013 under setting [1] and 0.6774 ± 0.0032 (genetic background: wild type).

For NLDGQIHYLQRL [GAL7 C-terminal 12 aa], the protein stability index runs as follows: under setting [1], 0.706 ± 0.012; (genetic background: wild type) 0.761 ± 0.091.

As for NMVNFESEKVNR [YVH1 C-terminal 12 aa], the protein stability index under setting [1] came to 0.706 ± 0.02 and the protein stability index (genetic background: wild type) was determined as 0.662 ± 0.012.

For NNDILQNKKLHQ [KIP1 C-terminal 12 aa], the protein stability index was 0.686 ± 0.034 under setting [1] and 0.712 ± 0.053 (genetic background: wild type).

As for NNLHLPGNTGFF [PDC2 C-terminal 12 aa], the protein stability index was 0.728 ± 0.0081 under setting [1] and 0.712 ± 0.043 (genetic background: wild type).

On to NPEATTKPKPRL [PTC5 C-terminal 12 aa], for which the protein stability index runs as follows: under setting [1], 0.752 ± 0.0099; (genetic background: wild type) 0.81 ± 0.049.

In turn, NPNSLPLQPIAN [MSC2 C-terminal 12 aa] registered a protein stability index under setting [1] of 0.704 ± 0.018 and a protein stability index (genetic background: wild type) of 0.691 ± 0.015.

In the case of NRVPKWMKLSKK [UBX4 C-terminal 12 aa], the protein stability index was found to be 0.676 ± 0.012 under setting [1] and 0.679 ± 0.027 (genetic background: wild type).

Regarding NRVVLVDHNSSS [IRS4 C-terminal 12 aa], the protein stability index worked out at 0.72 ± 0.024 under setting [1] and 0.727 ± 0.069 (genetic background: wild type).

In the case of NSDTIARIATVM [DAS1 C-terminal 12 aa], the protein stability index is, setting by setting: under setting [1], 0.685 ± 0.011; (genetic background: wild type) 0.595 ± 0.0036.

Take NSIISLEALDAI [SMX2 C-terminal 12 aa]: the protein stability index is, setting by setting: under setting [1], 0.72 ± 0.039; (genetic background: wild type) 0.708 ± 0.022.

In the case of NSNELEYAPTAN [LIA1 C-terminal 12 aa], the protein stability index came out at 0.686 ± 0.022 under setting [1] and 0.7 ± 0.11 (genetic background: wild type).

As to NTESSCGFFQWV [APN2 C-terminal 12 aa], the protein stability index is, setting by setting: under setting [1], 0.72737 ± 0.00023; (genetic background: wild type) 0.737 ± 0.02.

For the sequence NTFRKIKGDKKN [MDJ1 C-terminal 12 aa], the protein stability index came out at 0.687 ± 0.068 under setting [1] and 0.758 ± 0.0081 (genetic background: wild type).

Turning to NTFVLNMSRFII [YDL068W C-terminal 12 aa], the protein stability index came to 0.6739 ± 0.003 under setting [1] and 0.365 ± 0.079 (genetic background: wild type).

Turning to “NTHDLHLRPGTY [YBL005W-A C-terminal 12 aa]”, the protein stability index under setting [1] was found to be 0.6794 ± 0.00083 and the protein stability index (genetic background: wild type) is 0.708 ± 0.013.

NTTHYNASLLRQ [PHO5 C-terminal 12 aa] gave a protein stability index under setting [1] of 0.688 ± 0.022 and a protein stability index (genetic background: wild type) of 0.673 ± 0.017.

For the sequence NTVELLNIPLTS [YLR345W C-terminal 12 aa], the protein stability index came out at 0.6555 ± 0.0055 under setting [1] and 0.649 ± 0.0043 (genetic background: wild type).

PAAIKQAIASNV [TRX2 C-terminal 12 aa]: the protein stability index stood at 0.659 ± 0.0072 under setting [1] and 0.657 ± 0.0098 (genetic background: wild type).

With PAAKKVVELTQN [LSC2 C-terminal 12 aa], the protein stability index runs as follows: under setting [1], 0.685 ± 0.012; (genetic background: wild type) 0.58 ± 0.019.

PDCTVCSNSNSN [UBA3 C-terminal 12 aa]: the protein stability index under setting [1] was 0.705 ± 0.0088 and the protein stability index (genetic background: wild type) was found to be 0.677 ± 0.047.

As to PEGEAPEAFSMK [SEC14 C-terminal 12 aa], the protein stability index is, setting by setting: under setting [1], 0.7068 ± 0.0023; (genetic background: wild type) 0.684 ± 0.036.

As for PEGGDGPKYTLT [CIR2 C-terminal 12 aa], the protein stability index by setting is: under setting [1], 0.688 ± 0.018; (genetic background: wild type) 0.721 ± 0.016.

Turning to PEKWSASLKKFK [THI6 C-terminal 12 aa], the protein stability index worked out at 0.731 ± 0.017 under setting [1] and 0.6854 ± 0.0031 (genetic background: wild type).

Turning to PEMDKEKKKFYL [RPF1 C-terminal 12 aa], the protein stability index is, setting by setting: under setting [1], 0.724 ± 0.04; (genetic background: wild type) 0.708 ± 0.06.

Consider PEVIDTRKDNSN [COX11 C-terminal 12 aa], for which the protein stability index runs as follows: under setting [1], 0.687 ± 0.012; (genetic background: wild type) 0.696 ± 0.022.

The sequence PFGKKKTGLFSL [PRM10 C-terminal 12 aa] came in with a protein stability index under setting [1] of 0.723 ± 0.036 and a protein stability index (genetic background: wild type) of 0.717 ± 0.03.

Turning to PGDTLIEVIDLT [WSS1 C-terminal 12 aa], the protein stability index was determined as 0.692 ± 0.025 under setting [1] and 0.7105 ± 0.00019 (genetic background: wild type).

As to “PGLRRQHTRNFL [YMR294W-A C-terminal 12 aa]”, the protein stability index under setting [1] is 0.697 ± 0.01 and the protein stability index (genetic background: wild type) was 0.737 ± 0.042.

In turn, PHVKLFETTSGL [IRC5 C-terminal 12 aa] displayed a protein stability index under setting [1] of 0.718 ± 0.021 and a protein stability index (genetic background: wild type) of 0.712 ± 0.014.

With PKGDIEASIAEE [MPH3 C-terminal 12 aa], the protein stability index was found to be 0.6877 ± 0.00033 under setting [1] and 0.677 ± 0.016 (genetic background: wild type).

For the sequence PKWCSTMCSTAT [YDR445C C-terminal 12 aa], the protein stability index under setting [1] came out at 0.69 ± 0.03 and the protein stability index (genetic background: wild type) amounted to 0.743 ± 0.049.

On to “PLCYWHYSADTY [YIL105W-A C-terminal 12 aa]”, for which the protein stability index stood at 0.7217 ± 0.0058 under setting [1] and 0.808 ± 0.039 (genetic background: wild type).

Consider PLITPSGFRSSL [YNR025C C-terminal 12 aa], for which the protein stability index runs as follows: under setting [1], 0.707 ± 0.0084; (genetic background: wild type) 0.715 ± 0.025.

PNLSRANFTRNK [RSA1 C-terminal 12 aa]: the protein stability index reads like this: under setting [1], 0.695 ± 0.019; (genetic background: wild type) 0.699 ± 0.014.

PPFDFRLLFLLV [YGL165C C-terminal 12 aa] displayed a protein stability index under setting [1] of 0.542 ± 0.033 and a protein stability index (genetic background: wild type) of 0.269 ± 0.0091.

Take PTVTRKTPDYFL [PPH22 C-terminal 12 aa]: the protein stability index is 0.696 ± 0.0091 under setting [1] and 0.718 ± 0.089 (genetic background: wild type).

As for QCNFSYLESNYF [CTS1 C-terminal 12 aa], the protein stability index was found to be 0.689 ± 0.019 under setting [1] and 0.749 ± 0.06 (genetic background: wild type).

Regarding QFDSENVILSVI [TRS120 C-terminal 12 aa], the protein stability index reads like this: under setting [1], 0.716 ± 0.023; (genetic background: wild type) 0.687 ± 0.024.

As to QHDEKPFYKRMF [HXT8 C-terminal 12 aa], the protein stability index under setting [1] came out at 0.723 ± 0.026 and the protein stability index (genetic background: wild type) came to 0.666 ± 0.045.

Turning to QHLKTHKKHGDF [MSN4 C-terminal 12 aa], the protein stability index reads like this: under setting [1], 0.719 ± 0.0085; (genetic background: wild type) 0.6983 ± 0.001.

With QIILQKEGVLDK [KCC4 C-terminal 12 aa], the protein stability index was 0.704 ± 0.0035 under setting [1] and 0.672 ± 0.0083 (genetic background: wild type).

Turning to QKNKKRKFSDTS [RNT1 C-terminal 12 aa], the protein stability index runs as follows: under setting [1], 0.696 ± 0.019; (genetic background: wild type) 0.701 ± 0.018.

On to QLNLVVNGVRLN [YLR379W C-terminal 12 aa], for which the protein stability index is 0.674 ± 0.021 under setting [1] and 0.655 ± 0.016 (genetic background: wild type).

As for QMICPSLLGIRN [YHR130C C-terminal 12 aa], the protein stability index was 0.721 ± 0.013 under setting [1] and 0.6986 ± 0.0069 (genetic background: wild type).

Regarding QMRKNMTRTDEK [PKH1 C-terminal 12 aa], the protein stability index is, setting by setting: under setting [1], 0.671 ± 0.056; (genetic background: wild type) 0.714 ± 0.026.

In the case of QNNNILNDMRVN [SPT23 C-terminal 12 aa], the protein stability index under setting [1] turned out to be 0.669 ± 0.011 and the protein stability index (genetic background: wild type) worked out at 0.689 ± 0.039.

On to QQQQQKKESSTA [GIM5 C-terminal 12 aa], for which the protein stability index was 0.727 ± 0.0087 under setting [1] and 0.7 ± 0.037 (genetic background: wild type).

Consider QRASSRPKERRK [MSB4 C-terminal 12 aa], for which the protein stability index runs as follows: under setting [1], 0.711 ± 0.019; (genetic background: wild type) 0.713 ± 0.016.

With QRERINNYISVY [VMA6 C-terminal 12 aa], the protein stability index reads like this: under setting [1], 0.352 ± 0.02; (genetic background: wild type) 0.388 ± 0.0092.

The sequence QRSKSKRQKRRK [YNG1 C-terminal 12 aa] gave a protein stability index under setting [1] of 0.705 ± 0.017 and a protein stability index (genetic background: wild type) of 0.652 ± 0.036.

QRTRRRMSLYKL [TOS3 C-terminal 12 aa] returned a protein stability index under setting [1] of 0.807 ± 0.036 and a protein stability index (genetic background: wild type) of 0.853 ± 0.03.

On to QRVIKPSSALQF [ECM7 C-terminal 12 aa], for which the protein stability index reads like this: under setting [1], 0.706 ± 0.01; (genetic background: wild type) 0.682 ± 0.035.

For QSARRQRGSIAM [SDS24 C-terminal 12 aa], the protein stability index runs as follows: under setting [1], 0.683 ± 0.02; (genetic background: wild type) 0.6657 ± 0.0037.

As to QSLKISKKRRRK [ZIP1 C-terminal 12 aa], the protein stability index reads like this: under setting [1], 0.734 ± 0.033; (genetic background: wild type) 0.748 ± 0.086.

In the case of QSMLDGNSPESV [DCR2 C-terminal 12 aa], the protein stability index reads like this: under setting [1], 0.6985 ± 0.0053; (genetic background: wild type) 0.693 ± 0.021.

Consider QTILKNKKKISQ [GYP6 C-terminal 12 aa], for which the protein stability index under setting [1] stood at 0.701 ± 0.049 and the protein stability index (genetic background: wild type) amounted to 0.6842 ± 0.0023.
